# Measurements from PMC1318456.
# Target: Non-muscle actin (99% pure; 80% β-actin, 20% γ-actin), polymerized (UniProt P60709)
# Assay: co-sedimentation; actin filaments first bundled with α-actinin for 30 min at room temperature, CRP1 then added for a further 30 min, 10,000 x g; supernatant and pellet on gel, Gelcode Blue
substance,measurement,value
α-actinin purified from chicken gizzard (from UniProt P05094 1-893) (natural protein),"fold increase of α-actinin in the actin bundles with CRP1 added, against without CRP1",2 fold
